Data on one substance can be found in US7803750.

In the assay the target is tyrosinase protein of murine B16 melanoma tumors and melan-A murine melanocytes (murine) (UniProt P11344). Kind of assay: cell-based or functional assay.
UniProt P11344, sequence (P11344 19-533 limits assumed): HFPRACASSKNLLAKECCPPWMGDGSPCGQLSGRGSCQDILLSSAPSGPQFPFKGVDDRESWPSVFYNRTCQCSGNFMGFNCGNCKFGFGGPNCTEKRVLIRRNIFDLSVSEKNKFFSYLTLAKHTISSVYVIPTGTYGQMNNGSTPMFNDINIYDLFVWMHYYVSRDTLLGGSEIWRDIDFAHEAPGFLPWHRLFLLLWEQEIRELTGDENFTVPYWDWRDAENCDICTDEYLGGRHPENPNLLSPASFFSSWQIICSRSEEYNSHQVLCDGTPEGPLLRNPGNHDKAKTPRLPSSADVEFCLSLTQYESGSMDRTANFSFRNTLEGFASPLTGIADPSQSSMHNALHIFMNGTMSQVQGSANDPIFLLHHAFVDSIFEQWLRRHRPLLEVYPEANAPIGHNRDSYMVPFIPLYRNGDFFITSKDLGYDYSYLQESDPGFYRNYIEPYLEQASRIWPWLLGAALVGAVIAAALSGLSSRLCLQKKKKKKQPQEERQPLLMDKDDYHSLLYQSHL

Substance “epitope-tagged recombinant human (rh) ZAG (zinc alpha-2-glycoprotein) with myc and 6-His 3' epitope tags (from UniProt P25311 21-298)” gave a decrease in color development with L-DOPA (tyrosinase activity in frozen sections of B16-V tumors) of 25 to 50%.
